In paper PMC6323126, “Architecture, substructures, and dynamic assembly of STRIPAK complexes in Hippo signaling” (Cell Discovery, 2019):

T1: FHA domain (residues 5–135) of SLMAP (human, UniProt Q14BN4 5-135)
T1 construct: also called SLMAP (FHA); SLMAP FHA domain; source: E. coli BL21 (DE3) CodonPlus, purified
T1 sequence (looked up): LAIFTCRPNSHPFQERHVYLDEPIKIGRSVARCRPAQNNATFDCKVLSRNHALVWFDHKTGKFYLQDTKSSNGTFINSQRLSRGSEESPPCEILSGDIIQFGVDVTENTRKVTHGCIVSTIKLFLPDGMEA

T2: C-terminal domain (residues 421–837) of STRIP1, recombinant (UniProt Q5VSL9 421-837)
T2 sequence (looked up): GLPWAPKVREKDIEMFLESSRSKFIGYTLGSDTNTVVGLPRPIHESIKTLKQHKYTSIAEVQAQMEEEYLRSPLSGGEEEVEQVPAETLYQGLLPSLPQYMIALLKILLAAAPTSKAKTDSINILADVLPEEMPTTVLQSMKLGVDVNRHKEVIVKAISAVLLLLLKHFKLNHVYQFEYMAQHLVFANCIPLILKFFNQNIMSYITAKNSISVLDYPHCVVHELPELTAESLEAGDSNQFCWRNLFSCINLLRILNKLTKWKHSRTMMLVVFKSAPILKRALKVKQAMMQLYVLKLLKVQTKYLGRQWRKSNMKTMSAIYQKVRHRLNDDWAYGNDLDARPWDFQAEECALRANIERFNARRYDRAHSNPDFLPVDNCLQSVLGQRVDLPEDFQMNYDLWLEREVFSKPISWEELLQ

B1: STRIP1 (765–837) (domain or fragment, UniProt Q5VSL9 765-837, looked up)
chain: QAEECALRANIERFNARRYDRAHSNPDFLPVDNCLQSVLGQRVDLPEDFQMNYDLWLEREVFSKPISWEELLQ
B2: MST2 (recombinant, wildtype) (enzyme, human, UniProt Q13188 1-491, looked up)
chain: MEQPPAPKSKLKKLSEDSLTKQPEEVFDVLEKLGEGSYGSVFKAIHKESGQVVAIKQVPVESDLQEIIKEISIMQQCDSPYVVKYYGSYFKNTDLWIVMEYCGAGSVSDIIRLRNKTLIEDEIATILKSTLKGLEYLHFMRKIHRDIKAGNILLNTEGHAKLADFGVAGQLTDTMAKRNTVIGTPFWMAPEVIQEIGYNCVADIWSLGITSIEMAEGKPPYADIHPMRAIFMIPTNPPPTFRKPELWSDDFTDFVKKCLVKNPEQRATATQLLQHPFIKNAKPVSILRDLITEAMEIKAKRHEEQQRELEEEEENSDEDELDSHTMVKTSVESVGTMRATSTMSEGAQTMIEHNSTMLESDLGTMVINSEDEEEEDGTMKRNATSPQVQRPSFMDYFDKQDFKNKSHENCNQNMHEPFPMSKNVFPDNWKVPQDGDFDFLKNLSLEELQMRLKALDPMMEREIEELRQRYTAKRQPILDAMDAKKRRQQNF
notes: MST2 (STK3), human; also called STK3; Hippo kinase MST2; source: E. coli BL21 (DE3) CodonPlus, purified
B3: GST-tagged MST2 (enzyme, human, UniProt Q13188 1-491, looked up)
chain: B2 chain
notes: MST2 (STK3), human; also called MST2/pMST2; source: E. coli BL21 (DE3) CodonPlus, purified; not shown: GST, N-terminal, kept
B4: MST2 middle linker region (residues 308–435) (domain or fragment, human, UniProt Q13188 308-435, looked up)
chain: ELEEEEENSDEDELDSHTMVKTSVESVGTMRATSTMSEGAQTMIEHNSTMLESDLGTMVINSEDEEEEDGTMKRNATSPQVQRPSFMDYFDKQDFKNKSHENCNQNMHEPFPMSKNVFPDNWKVPQDG
notes: also called linker region of MST2; source: E. coli BL21 (DE3) CodonPlus, purified
B5: MST2 kinase domain (residues 1–308) (domain or fragment, human, UniProt Q13188 1-308, looked up)
chain: MEQPPAPKSKLKKLSEDSLTKQPEEVFDVLEKLGEGSYGSVFKAIHKESGQVVAIKQVPVESDLQEIIKEISIMQQCDSPYVVKYYGSYFKNTDLWIVMEYCGAGSVSDIIRLRNKTLIEDEIATILKSTLKGLEYLHFMRKIHRDIKAGNILLNTEGHAKLADFGVAGQLTDTMAKRNTVIGTPFWMAPEVIQEIGYNCVADIWSLGITSIEMAEGKPPYADIHPMRAIFMIPTNPPPTFRKPELWSDDFTDFVKKCLVKNPEQRATATQLLQHPFIKNAKPVSILRDLITEAMEIKAKRHEEQQRE
notes: also called kinase domain of MST2; source: E. coli BL21 (DE3) CodonPlus, purified
B6: STRN3 peptide (residues 166–190) (peptide, UniProt Q13033 166-190, looked up)
peptide: QNSQLTWKQGRQLLRQYLQEVGYTD
B7: STRN3 fragment (residues 64–341), tag not told (domain or fragment, human, UniProt Q13033 64-341, looked up)
chain: TIPGILHYIQHEWARFEMERAHWEVERAELQARIAFLQGERKGQENLKKDLVRRIKMLEYALKQERAKYHKLKYGTELNQGDLKMPTFESEETKDTEAPTAPQNSQLTWKQGRQLLRQYLQEVGYTDTILDVRSQRVRSLLGLSNSEPNGSVETKNLEQILNGGESPKQKGQEIKRSSGDVLETFNFLENADDSDEDEENDMIEGIPEGKDKHRMNKHKIGNEGLAADLTDDPDTEEALKEFDFLVTAEDGEGAGEARSSGDGTEWDKDDLSPTAEVW
notes: source: E. coli BL21 (DE3) CodonPlus, purified
B8: MBP-tagged STRN3 fragment (residues 64–341) (domain or fragment, human, UniProt Q13033 64-341, looked up)
chain: B7 chain
notes: source: E. coli BL21 (DE3) CodonPlus, purified; not shown: MBP, N-terminal, kept
B9: MST4 (recombinant) (enzyme)
chain: not shown
notes: MST4 (STK26), human; also called STK26; source: E. coli BL21 (DE3) CodonPlus, purified
B10: MST4 kinase domain (residues 1–300) (domain or fragment)
chain: not shown
notes: MST4 (STK26), human, residues 1-300; also called N-terminal kinase domain of MST4; source: E. coli BL21 (DE3) CodonPlus, purified
B11: SIKE1 CC1 (residues 5–65) (domain or fragment, human, UniProt Q9BRV8 5-65, looked up)
chain: IEKILTDAKTLLERLREHDAAAESLVDQSAALHRRVAAMREAGTALPDQYQEDASDMKDMS
notes: SIKE1, human, residues 5-65; Homodimer within the 2:2 crystal complex; also called residues 5–65 of SIKE1; source: E. coli BL21 (DE3) CodonPlus, purified
B12: SIKE1 second coiled-coil (CC2) region, residues 72–121 (domain or fragment, human, UniProt Q9BRV8 72-121, looked up)
chain: LLSQENTQIRDLQQENRELWISLEEHQDALELIMSKYRKQMLQLMVAKKA
notes: Homotetramer in the apo crystal, homodimer in the crystal with the STRN3 peptide; A Se-Met form was used for phasing; also called SIKE1 CC2; source: E. coli BL21 (DE3) CodonPlus, purified
B13: STRN3 coiled-coil domain (CC, amino acid residues 64–145) (domain or fragment, human, UniProt Q13033 64-145, looked up)
chain: TIPGILHYIQHEWARFEMERAHWEVERAELQARIAFLQGERKGQENLKKDLVRRIKMLEYALKQERAKYHKLKYGTELNQGD
notes: also called STRN3 CC; source: E. coli BL21 (DE3) CodonPlus, purified

Experiments:
[1] = molecular target: B13; assay: ITC; iTC200, 25 °C, 20 mM HEPES (pH 7.5), 100 mM NaCl; details: both partners purified
[2] = molecular target: T3, STRIP1 (full-length, His-tagged, insect cells) (UniProt Q5VSL9 1-837); assay: pull-down; GST pulldown: GST-tagged protein, partner and glutathione Sepharose mixed at 4 °C for 1 h in 20 mM HEPES (pH 7.5), 100 mM NaCl; eluted with 20 mM reduced glutathione; SDS-PAGE, Coomassie staining; details: both partners purified
T3 construct: STRIP1, full length; His tag is TEV-cleavable; also called His-STRIP1; FAM40A; source: High Five insect cells (baculovirus), purified

[3] = molecular target: T3, STRIP1 (full-length, His-tagged, insect …); assay: pull-down; pulldown with the kinase dephosphorylated with λPPase and then autophosphorylated with ATP (and magnesium ion); details: both partners purified
[4] = molecular target: T1, FHA domain (residues 5–135) of SLMAP; assay: pull-down; GST pulldown: GST-tagged protein, partner and glutathione Sepharose mixed at 4 °C for 1 h in 20 mM HEPES (pH 7.5), 100 mM NaCl; eluted with 20 mM reduced glutathione; SDS-PAGE, Coomassie staining; details: both partners purified
[5] = molecular target: T3, STRIP1 (full-length, His-tagged, insect …); assay: pull-down; MBP pulldown: MBP-tagged protein, partner and amylose resin mixed at 4 °C for 1 h in 20 mM HEPES (pH 7.5), 100 mM NaCl; eluted with 20 mM maltose; SDS-PAGE, Coomassie staining; details: both partners purified
[6] = molecular target: B12; assay: ITC; iTC200, 25 °C, 20 mM HEPES (pH 7.5), 100 mM NaCl; details: both partners purified
[7] = molecular target: B12; assay: crystal structure; SIKE1 CC2 mixed with STRN3 peptide (166–190) at 1:1.2 molar ratio, 1.75 Å; 35% MPD, 0.1 M imidazole (pH 7.5), 16 °C; details: both partners purified
[8] = molecular target: B2; assay: pull-down; GST pulldown: GST-tagged protein, partner and glutathione Sepharose mixed at 4 °C for 1 h in 20 mM HEPES (pH 7.5), 100 mM NaCl; eluted with 20 mM reduced glutathione; SDS-PAGE, Coomassie staining; details: both partners purified
[9] = molecular target: T3, STRIP1 (full-length, His-tagged, insect …); assay: pull-down; pulldown with purified recombinant proteins shown in supplementary figures; whether GST or MBP and who carried the tag not told; details: both partners purified
[10] = molecular target: the molecule itself; assay: crystal structure; SIKE1 CC1-SLMAP CC1 complex reconstituted 1:1 and gel-filtered, 2.3 Å; 0.1 M sodium citrate (pH 5.5), 15% PEG 6000, 16 °C
[11] = molecular target: the molecule itself; assay: crystal structure; SIKE1 CC2 mixed with STRN3 peptide (166–190) at 1:1.2 molar ratio, 1.75 Å; 35% MPD, 0.1 M imidazole (pH 7.5), 16 °C
[12] = molecular target: the molecule itself; assay: crystal structure; apo SIKE1 CC2, 1.5 Å; 0.1 M Tris (pH 8.5), 0.7 M ammonium tartrate dibasic, 16 °C
[13] = molecular target: B10; assay: pull-down; pulldown with purified recombinant proteins shown in supplementary figures; whether GST or MBP and who carried the tag not told; details: both partners purified
[14] = molecular target: T2, C-terminal domain (residues 421–837) of …; assay: as above; details: both partners purified

B1 showed a Kd [1] of 1.6 µM.

B2: binds [2].

B3: binds [3].

B4: binds [4].

B5: binds [5].

For B6, the Kd [6] was 2.9 µM and the “stoichiometry N” value [7] was 2 SIKE1 CC2 per STRN3 peptide.

B7: binds [8].

B8: binds [5].

B9: binds [2].

B10: binds [9].

In the case of B11, the “stoichiometry N” value [10] is reported as 2.

With B12 the “stoichiometry N” value [11] was 2 and the “stoichiometry N” value [12] was 4.

B13: binds [13]; binds [14]; binds [5]. B13: binds [8].
